Source: US20140087995A1 (published 2014)
Numbered stars: 1 amine (or outer) side, 2 acyl side, 3 side chain; on linkers, the order of the positions; unused ones are H or OH. Bridge positions count the residues as written; N and C are the ends. * marks the point of attachment. C20 diacid = O=C(O)CCCCCCCCCCCCCCCCCCC(=O)*; γGlu = O=C(O)[C@H](CCC(=O)[*:2])N[*:1]

T1: rat amylin receptor (rat calcitonin receptor + rat RAMP 3) (rat, UniProt P32214 25-516; Q9JJ73 23-147)
T1 construct: whole, on cells; Cell membranes of transiently transfected BHK tk'ts 13 cells (Assay VI); also called rAmylin-R; rat amylin 3(a) receptor
T1 sequence (looked up) 1: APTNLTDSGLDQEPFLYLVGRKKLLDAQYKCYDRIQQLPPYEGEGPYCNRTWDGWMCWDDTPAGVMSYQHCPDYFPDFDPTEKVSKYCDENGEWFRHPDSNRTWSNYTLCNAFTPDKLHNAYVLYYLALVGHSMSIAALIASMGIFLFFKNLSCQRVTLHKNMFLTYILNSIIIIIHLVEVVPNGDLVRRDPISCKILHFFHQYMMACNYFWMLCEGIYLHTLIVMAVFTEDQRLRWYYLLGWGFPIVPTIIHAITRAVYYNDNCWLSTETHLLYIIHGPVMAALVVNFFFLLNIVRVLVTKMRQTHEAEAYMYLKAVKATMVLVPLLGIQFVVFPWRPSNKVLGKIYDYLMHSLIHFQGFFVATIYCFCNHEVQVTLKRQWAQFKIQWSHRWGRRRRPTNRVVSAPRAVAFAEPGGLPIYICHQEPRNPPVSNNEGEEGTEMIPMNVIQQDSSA
T1 sequence (looked up) 2: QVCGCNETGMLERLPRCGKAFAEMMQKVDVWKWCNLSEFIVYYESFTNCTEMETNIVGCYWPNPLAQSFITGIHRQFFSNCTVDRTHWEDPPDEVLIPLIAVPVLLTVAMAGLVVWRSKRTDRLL

T2: human calcitonin receptor (human, UniProt P30988 25-474)
T2 construct: whole, on cells; Cell membranes of a stably transfected BHK cell line (Assay VII); also called hCTR; hCT
T2 sequence (looked up): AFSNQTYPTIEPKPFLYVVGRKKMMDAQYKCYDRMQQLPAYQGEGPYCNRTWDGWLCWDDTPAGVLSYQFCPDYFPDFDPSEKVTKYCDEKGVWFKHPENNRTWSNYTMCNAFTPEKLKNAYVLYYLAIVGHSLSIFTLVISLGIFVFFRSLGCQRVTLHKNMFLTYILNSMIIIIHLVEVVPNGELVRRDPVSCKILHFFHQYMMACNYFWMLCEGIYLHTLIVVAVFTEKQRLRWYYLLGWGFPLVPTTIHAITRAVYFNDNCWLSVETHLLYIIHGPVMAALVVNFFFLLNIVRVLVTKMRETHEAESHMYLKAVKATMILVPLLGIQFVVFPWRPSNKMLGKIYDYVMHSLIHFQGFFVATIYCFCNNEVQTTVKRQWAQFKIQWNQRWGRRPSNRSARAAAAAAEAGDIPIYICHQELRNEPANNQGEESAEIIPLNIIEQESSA

T3: rat calcitonin receptor (rat, UniProt P32214 25-516)
T3 construct: whole, on cells; Cell membranes of transiently transfected BHK tk'ts 13 cells (Assay VIII); also called rCTR; rCT
T3 sequence (looked up): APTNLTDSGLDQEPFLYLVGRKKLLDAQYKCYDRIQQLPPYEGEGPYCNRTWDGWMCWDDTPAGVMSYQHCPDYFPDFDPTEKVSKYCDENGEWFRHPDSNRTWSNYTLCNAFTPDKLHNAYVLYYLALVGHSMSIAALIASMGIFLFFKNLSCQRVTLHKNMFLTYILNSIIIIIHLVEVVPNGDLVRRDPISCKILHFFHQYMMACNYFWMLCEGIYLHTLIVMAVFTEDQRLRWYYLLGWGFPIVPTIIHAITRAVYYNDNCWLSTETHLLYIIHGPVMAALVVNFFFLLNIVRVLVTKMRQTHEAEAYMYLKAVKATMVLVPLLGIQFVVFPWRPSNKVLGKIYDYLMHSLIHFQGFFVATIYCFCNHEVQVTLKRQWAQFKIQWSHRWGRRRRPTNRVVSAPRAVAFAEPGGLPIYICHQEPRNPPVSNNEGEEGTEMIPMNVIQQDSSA

T4: human calcitonin receptor (human, UniProt P30988 25-474)
T4 sequence (looked up): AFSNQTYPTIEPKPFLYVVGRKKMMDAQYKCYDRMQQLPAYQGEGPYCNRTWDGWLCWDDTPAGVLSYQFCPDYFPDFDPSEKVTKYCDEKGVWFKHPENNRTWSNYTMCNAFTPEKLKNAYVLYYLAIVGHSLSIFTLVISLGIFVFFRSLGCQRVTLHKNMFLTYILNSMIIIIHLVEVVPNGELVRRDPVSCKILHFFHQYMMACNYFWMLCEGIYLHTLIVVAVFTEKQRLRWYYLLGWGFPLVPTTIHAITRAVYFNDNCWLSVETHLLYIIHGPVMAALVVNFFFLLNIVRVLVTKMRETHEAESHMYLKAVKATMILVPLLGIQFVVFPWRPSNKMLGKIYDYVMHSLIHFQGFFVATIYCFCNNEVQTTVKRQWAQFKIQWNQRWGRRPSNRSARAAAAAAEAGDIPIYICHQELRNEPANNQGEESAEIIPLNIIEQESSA

T5: human amylin receptor (amylin 3(a) receptor: human calcitonin receptor with RAMP-3) (human, UniProt P30988 25-474; O60896 24-148, limits assumed)
T5 construct: whole, on cells; Whole cells in the luciferase assay (Assay II a); also called hAmylin-R; hAmylinR
T5 sequence (looked up) 1: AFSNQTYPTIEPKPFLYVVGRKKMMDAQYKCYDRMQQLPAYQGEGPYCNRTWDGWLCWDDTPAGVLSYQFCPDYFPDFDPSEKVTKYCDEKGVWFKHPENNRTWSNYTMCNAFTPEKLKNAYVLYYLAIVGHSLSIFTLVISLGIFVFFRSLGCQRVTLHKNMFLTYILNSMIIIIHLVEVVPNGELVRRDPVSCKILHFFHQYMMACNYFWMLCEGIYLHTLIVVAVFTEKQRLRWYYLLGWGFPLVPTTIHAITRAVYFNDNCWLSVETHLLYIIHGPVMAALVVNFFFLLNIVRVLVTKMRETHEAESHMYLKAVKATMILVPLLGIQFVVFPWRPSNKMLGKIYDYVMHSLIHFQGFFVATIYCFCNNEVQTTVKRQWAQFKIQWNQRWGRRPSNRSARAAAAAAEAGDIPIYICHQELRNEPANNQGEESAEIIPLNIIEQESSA
T5 sequence (looked up) 2: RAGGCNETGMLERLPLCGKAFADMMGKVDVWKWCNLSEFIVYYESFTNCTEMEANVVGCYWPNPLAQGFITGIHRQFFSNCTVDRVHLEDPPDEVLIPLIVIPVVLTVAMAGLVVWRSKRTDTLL


Tests used:
[1] = target: T1, rat amylin receptor (rat calcitonin …); assay: SPA competition vs 125I-rat amylin, membranes with rat CTR + rat RAMP3 (Assay VI)
[2] = target: T2, human calcitonin receptor; assay: ratio IC50 human calcitonin receptor / IC50 human amylin receptor
Experimental: The resulting pellet was resuspended, homogenized and centrifuged (20.000 rpm, 15 min) in a buffer containing 20 mM Na-HEPES and 0.1 mM EDTA (pH 7.4, buffer 2). The resulting pellet was resuspended in buffer 2 and protein concentration was measured (BCA protein Assay, Pierce). The homogenate was kept cold during the whole procedure. The membranes were kept at −80° C. until use. The assay was performed in a 384 well Optiplate (PerkinElmer) in a total volume of 40 ul. Membranes were mixed with SPA beads. Final concentration of membranes 35 ng/μL final and SPA beads was 0.05 mg/well. Test-compounds were dissolved in DMSO and further diluted in assay buffer (50 mM Hepes, pH 7.4, 1 mM CaCl2, 5 mM MgCl₂, 0.1% OA and 0.02% Tween20). […] The final mixture was incubated with shaking at 400 rpm for 120 min at 25° C. prior to centrifugation (1500 rpm, 10 min). Samples were analyzed on TopCounter™ (Packard). The IC₅₀ was calculated using (one site binding competition analysis) GraphPad Prism5 as a measure of receptor affinity.
Membranes were prepared in the following way; the cells were rinsed with PBS and incubated with Versene for approximately 5 min before harvesting. The cells were flushed with PBS and the cell-suspension was centrifuged for 5 min at 1000 rpm. Cells were homogenized (Ultrathurrax) in a buffer containing 20 mM Na-HEPES and 10 mM EDTA (pH 7.4) and centrifuged at 20.000 rpm for 15 min. The resulting pellet was resuspended, homogenized and centrifuged (20.000 rpm, 15 min) in a buffer containing 20 mM Na-HEPES and 0.1 mM EDTA (pH 7.4, buffer 2). The resulting pellet was resuspended in buffer 2 and protein concentration was measured (BCA protein Assay, Pierce). The homogenate was kept cold during the whole procedure. The membranes were kept at −80° C. until use. Assay was performed in a 384 well Optiplate (PerkinElmer) in a total volume of 40 ul. Membranes were mixed with SPA beads.

rat calcitonin receptor [3] = target: T3, rat calcitonin receptor; assay: ratio IC50 rat calcitonin receptor / IC50 rat amylin receptor
rat calcitonin receptor [4] = target: T3, rat calcitonin receptor; assay: SPA competition vs 125I-calcitonin, membranes with rat CTR (Assay VIII)
[5] = target: T4, human calcitonin receptor; assay: cell-based or functional assay
[6] = target: T5, human amylin receptor (amylin 3(a) …); assay: SPA competition binding on membranes of BHK cells with human calcitonin receptor + RAMP-3; displacement of 125I-rat amylin (Assay V)
Summary of the method: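 One-site competition analysis of SPA counts yielded IC₅₀ as a measure of affinity. Membranes were at 35 ng/μL final; incubation was 120 min at 25° C, pH 7.4.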

| Binder | IC50 [1] [nM] | Ratio hCT/hAmylin binding [2] | Ratio rCT/rAmylin binding (rat calcitonin receptor [3]) | IC50 (rat calcitonin receptor [4]) [nM] | Ratio hCT/hAmylin funct. [5] [ratio] | IC50 [6] [nM] |
| --- | --- | --- | --- | --- | --- | --- |
| KCNTATCATQRLANFLRHSSPNFGAIPSSTNVGHNTY (C20 diacid-gGlu on alpha-amino of the N-terminal residue; Cys2-Cys7 disulfide; C-terminal amide (as human amylin), Acylated analogue of human amylin; also called compound 40) [N^α1-[(4S)-4-carboxy-4-(19-carboxynonadecanoylamino)butanoyl]-[Arg17,Pro21,Pro27,His34]-h-amylin] | 1.5 | 31.1 | 46.2 | 69.2 | – | – |
| KCNTATCATQRLANFLRHSSPNFGAIPSSTNVGRNTY (C20 diacid-gGlu on alpha-amino of the N-terminal residue; Cys2-Cys7 disulfide; C-terminal amide (as human amylin), Acylated analogue of human amylin; also called compound 39) [N^α1-[(4S)-4-carboxy-4-(19-carboxynonadecanoylamino)butanoyl]-[Arg17,Pro21,Pro27,Arg34]-h-amylin] | 1.77 | 29 | 54.5 | 96.4 | – | – |

Continued, values first:

| IC50 [1] [nM] | Ratio hCT/hAmylin binding [2] | Ratio rCT/rAmylin binding (rat calcitonin receptor [3]) | IC50 (rat calcitonin receptor [4]) [nM] | Ratio hCT/hAmylin funct. [5] [ratio] | IC50 [6] [nM] | Binder |
| --- | --- | --- | --- | --- | --- | --- |
| 1.22 | 20.5 | 44.9 | 54.9 | – | – | {C20 diacid-γGlu}-KCNTATCATQRLANFLRHSSPNFGAIPSSTPVGSETY-NH2 (disulfide 2-7; SMILES CC[C@H](C)[C@H](NC(=O)[C@H](C)NC(=O)CNC(=O)[C@H](Cc1ccccc1)NC(=O)[C@H](CC(N)=O)NC(=O)[C@@H]1CCCN1C(=O)[C@H](CO)NC(=O)[C@H](CO)NC(=O)[C@H](Cc1c[nH]cn1)NC(=O)[C@H](CCCNC(=N)N)NC(=O)[C@H](CC(C)C)NC(=O)[C@H](Cc1ccccc1)NC(=O)[C@H](CC(N)=O)NC(=O)[C@H](C)NC(=O)[C@H](CC(C)C)NC(=O)[C@H](CCCNC(=N)N)NC(=O)[C@H](CCC(N)=O)NC(=O)[C@@H](NC(=O)[C@H](C)NC(=O)[C@@H]1CSSC[C@H](NC(=O)[C@H](CCCCN)NC(=O)CC[C@H](NC(=O)CCCCCCCCCCCCCCCCCCC(=O)O)C(=O)O)C(=O)N[C@@H](CC(N)=O)C(=O)N[C@@H]([C@@H](C)O)C(=O)N[C@@H](C)C(=O)N[C@@H]([C@@H](C)O)C(=O)N1)[C@@H](C)O)C(=O)N1CCC[C@H]1C(=O)N[C@@H](CO)C(=O)N[C@@H](CO)C(=O)N[C@H](C(=O)N1CCC[C@H]1C(=O)N[C@H](C(=O)NCC(=O)N[C@@H](CO)C(=O)N[C@@H](CCC(=O)O)C(=O)N[C@H](C(=O)N[C@@H](Cc1ccc(O)cc1)C(N)=O)[C@@H](C)O)C(C)C)[C@@H](C)O, Acylated analogue of human amylin; also called compound 28) |
| – | – | – | – | 4.9 | 0.426 | {C20 diacid-γGlu}-GRCNTATCATQRLAAFLRHSSPNFGAIPSSTNVGHNTY-NH2 (disulfide 3-8 (inferred)) |
| – | – | – | – | 2.9 | 0.217 | {C20 diacid-γGlu}-GRCNTATCATQRLAHFLRHSSPNFGAIPSSTNVGPNTY-NH2 (disulfide 3-8 (inferred)) |
